In patent US20140072563A1 (Regeneron, published 2014):
Numbering of substitutions follows the chain as printed. Names and notes keep the numbering of the source. Values belong to the binder of their own block, whether it stands above or below them.

Columns and labels:
[1] = target: T1, hErbB3.hFc (soluble dimeric human ErbB3 extracellular domain fused to human Fc) (human); assay: blocking ELISA: antibody + 50 pM ErbB3-hFc on neuregulin1b-coated plate
T1 construct: called dimeric
Description: To further characterize anti-hErbB3 mAbs of the present invention, their ability to block ligand binding was examined via ELISA. […] Plates were washed and non-sequestered (plate bound) ErbB3 was detected with an anti-Fc poly conjugated with horseradish peroxidase (HRP). Plates were developed with TMB (3,3′,5,5′-tetramethylbenzidine) and neutralized with sulfuric acid before reading absorbance at 450 nm on a Victor X5 plate reader. Data analysis used a sigmoidal dose-response model within Prism™ software. […] Maximal blocking for each antibody was calculated by taking the difference in absorbance from zero to 50 nM antibody on the inhibition curve, divided by the difference in absorbance from 50 pM to zero ErbB3 on the dose curve.

[2] = target: hErbB3.mmh (soluble monomeric human ErbB3 extracellular domain with C-terminal myc-myc-hexahistidine tag) (human, UniProt P21860 20-642); assay: SPR (Biacore), 25 C, mAb capture format
Experimental: (§1) (Tables 2-4). Measurements were conducted on a Biacore 2000 or T100 instrument. […] Kinetic association (kₐ) and dissociation (kd) rate constants were determined by processing and fitting the data to a 1:1 binding model using Scrubber 2.0 curve fitting software.

[3] = target: T1, hErbB3.hFc (soluble dimeric human ErbB3 …); assay: SPR (Biacore), 25 C, mAb capture format
Experimental: as §1

T1 sequence (chain, as listed by the source limits assumed): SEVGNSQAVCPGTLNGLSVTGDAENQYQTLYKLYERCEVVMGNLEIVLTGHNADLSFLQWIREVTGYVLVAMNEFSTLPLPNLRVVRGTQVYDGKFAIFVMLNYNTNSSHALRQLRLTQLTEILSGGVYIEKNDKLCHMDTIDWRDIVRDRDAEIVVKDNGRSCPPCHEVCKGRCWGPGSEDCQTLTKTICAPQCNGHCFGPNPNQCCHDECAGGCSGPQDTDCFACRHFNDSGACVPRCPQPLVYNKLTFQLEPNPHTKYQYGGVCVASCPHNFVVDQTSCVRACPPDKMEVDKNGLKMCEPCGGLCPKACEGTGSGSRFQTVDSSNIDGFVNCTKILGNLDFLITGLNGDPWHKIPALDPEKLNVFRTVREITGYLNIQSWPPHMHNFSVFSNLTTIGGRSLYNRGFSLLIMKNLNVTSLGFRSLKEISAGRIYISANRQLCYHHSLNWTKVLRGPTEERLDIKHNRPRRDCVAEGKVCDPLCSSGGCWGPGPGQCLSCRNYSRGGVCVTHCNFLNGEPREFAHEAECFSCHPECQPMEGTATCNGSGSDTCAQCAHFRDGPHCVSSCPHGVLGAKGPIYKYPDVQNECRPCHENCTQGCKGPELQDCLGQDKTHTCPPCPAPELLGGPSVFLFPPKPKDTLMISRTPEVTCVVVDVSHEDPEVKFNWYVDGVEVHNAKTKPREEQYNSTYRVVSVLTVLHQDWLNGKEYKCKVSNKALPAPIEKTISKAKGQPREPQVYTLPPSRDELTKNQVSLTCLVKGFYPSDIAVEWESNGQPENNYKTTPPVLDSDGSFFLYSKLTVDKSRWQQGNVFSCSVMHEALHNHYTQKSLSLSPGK
Chain of hErbB3.mmh (soluble monomeric human ErbB3 extracellular domain with C-terminal myc-myc-hexahistidine tag) (P21860 other isoform, or with tags, fused parts or gaps): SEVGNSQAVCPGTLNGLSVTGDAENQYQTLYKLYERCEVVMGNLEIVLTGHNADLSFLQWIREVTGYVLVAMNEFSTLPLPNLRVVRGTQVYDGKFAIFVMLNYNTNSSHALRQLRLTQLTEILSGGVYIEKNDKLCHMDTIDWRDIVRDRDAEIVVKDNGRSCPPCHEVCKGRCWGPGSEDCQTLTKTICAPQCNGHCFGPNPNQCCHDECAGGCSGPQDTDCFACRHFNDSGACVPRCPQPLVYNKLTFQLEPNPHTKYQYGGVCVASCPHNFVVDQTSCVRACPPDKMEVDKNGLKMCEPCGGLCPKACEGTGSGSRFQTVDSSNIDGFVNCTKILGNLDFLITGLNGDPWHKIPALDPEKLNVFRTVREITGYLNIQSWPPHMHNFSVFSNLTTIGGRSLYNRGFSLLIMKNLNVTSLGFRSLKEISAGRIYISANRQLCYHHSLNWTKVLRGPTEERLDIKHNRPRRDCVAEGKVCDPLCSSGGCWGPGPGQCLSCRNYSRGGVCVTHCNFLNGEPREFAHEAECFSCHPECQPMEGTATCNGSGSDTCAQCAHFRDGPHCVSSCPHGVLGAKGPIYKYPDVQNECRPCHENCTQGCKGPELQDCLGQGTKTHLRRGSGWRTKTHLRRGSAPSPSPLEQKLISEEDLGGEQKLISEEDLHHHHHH

B1: H2M1821N (antibody, V domains shown)
VH: EVQLVESGGGLVQPGRSLRLSCAASGFTFDDYAMHWVRQAPGKGLEWVSSISWNSGSIGYADSVKGRFTISRDNAKNSLYLQMNSLKPEDTALYYCTKDTDYGDYLDAFDIWGQGTMVAVAS
VL: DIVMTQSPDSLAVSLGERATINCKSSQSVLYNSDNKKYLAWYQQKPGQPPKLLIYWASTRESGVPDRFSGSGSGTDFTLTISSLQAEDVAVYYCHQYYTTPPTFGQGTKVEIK
notes: Hybridoma chimeric antibody: human variable domains, mouse IgG2 Fc (H2M prefix)
IC50 [1]: 0.0285 nM
Maximal Blocking (%) [1]: 96%
Kd [2]: 0.867 nM
T½ [2]: 0.967 h
koff [2]: 0.000199 s⁻¹
kon [2]: 229000 M⁻¹ s⁻¹
Kd [3]: 0.0413 nM
T½ [3]: 10.1 h
koff [3]: 1.9e-05 s⁻¹
kon [3]: 461000 M⁻¹ s⁻¹

B2: H2M1829N (antibody, V domains shown)
VH: EVQLVESGGGVVRPGGSLRLSCVASGFTFDDYGMSWVRQAPGKGLECVSGINWNGGSTDYADSVKGRFTISRDNAKNSLYLQMNSLRAEDTALYHCARDGGDWDYFDLWGRGTLVTVSS
VL: EILMTQSPATLSVSPGERATLSCRASQSVSSNLAWYQQKPGQAPRLLIYGASTRATGIPARFSGSGSGTEFTLTISSLQSEDFAIYYCQEYNDWPLTFGGGTKVEIK
notes: as for B1
IC50 [1]: 0.0238 nM
Maximal Blocking (%) [1]: 98%
Kd [2]: 0.281 nM
T½ [2]: 2.98 h
koff [2]: 6.46e-05 s⁻¹
kon [2]: 230000 M⁻¹ s⁻¹
Kd [3]: 0.0198 nM
T½ [3]: 22.4 h
koff [3]: 8.61e-06 s⁻¹
kon [3]: 436000 M⁻¹ s⁻¹

B3: H2M1824N (antibody, V domains shown)
VH: B2 VH with V23A, L93S, H95Y
VL: B2 VL with L3V, I85V, Y87F
notes: as for B1
IC50 [1]: 0.0251 nM
Maximal Blocking (%) [1]: 99%
Kd [2]: 0.205 nM
T½ [2]: 4.23 h
koff [2]: 4.56e-05 s⁻¹
kon [2]: 223000 M⁻¹ s⁻¹
Kd [3]: 0.00334 nM
T½ [3]: 134 h
koff [3]: 1.44e-06 s⁻¹
kon [3]: 431000 M⁻¹ s⁻¹

B5: H2M1930N (antibody, V domains shown)
VH: EVQLVESGGGLVKPGGSLRLSCVASGFTFSSYNMNWVRQAPGKGLEWVSFISGSSNYIHYADSVKGRFTISRDNAKNALYLQMNSLRAEDTAVYYCARDDGDYDWFDPWGQGTLVTVSS
VL: EIVLTQSPGTLSLSPGERATLSCRASQSVSSSYLAWYQQKPGQAPRLLIYGTSSRATGIPDRFSGSGSGTDFTLTISRLEPEDFAVYYCQQYDNSYTFGQGTKLEIK
notes: as for B1
IC50 [1]: 0.0222 nM
Maximal Blocking (%) [1]: 87%
Kd [2]: 0.559 nM
T½ [2]: 1.77 h
koff [2]: 0.000109 s⁻¹
kon [2]: 196000 M⁻¹ s⁻¹
Kd [3]: 0.0205 nM
T½ [3]: 23.3 h
koff [3]: 8.27e-06 s⁻¹
kon [3]: 404000 M⁻¹ s⁻¹

B7: H2M1938N (antibody, V domains shown)
VH: EVQLVESGGGVVRPGGSLRLSCAASGFTFDDYGMSWVRQVPGKGLEWVSGLNWNGGITGYTDSVKGRFTISRDNAKNSLYLQMNSLRAEDTAFYHCARDSGDQDAFDIWGQGTMVTVSS
VL: QIVMTQSPATLSVSPGERATLSCRASQSITPYLAWYQQKPGQTPRLLIYGVSTRATGIPARFSGSGSGTEFTLTISSLQSEDFAVYYCQQYDNWYTFGQGTKLEIK
notes: as for B1
IC50 [1]: 0.0249 nM
Maximal Blocking (%) [1]: 85%
Kd [2]: 0.599 nM
T½ [2]: 1.33 h
koff [2]: 0.000144 s⁻¹
kon [2]: 241000 M⁻¹ s⁻¹
Kd [3]: 0.0301 nM
T½ [3]: 14.2 h
koff [3]: 1.36e-05 s⁻¹
kon [3]: 451000 M⁻¹ s⁻¹

B10: H1M1828N (antibody, V domains shown)
VH: EVQLVESGGGLVQPGRSLRLSCAASGFTFDDYAMYWVRQAPGKGLEWVSGISWNSGSIGYADSVKGRFTISRDNAKNSLYLQMDSLRAEDTALYYCARDMMEVDLYGMDVWGQGTTVTVSS
VL: DIQMTQSPSSVSASVGDRVTITCRASQDISSWLAWYQQKPGTAPKFLIYETSSLQSGVPSRFSGSGSGTDFILTISSLQPEDFATYYCQQTDSFPHTFGQGTKLEIR
notes: Hybridoma chimeric antibody: human variable domains, mouse constant domains (H1M prefix, mouse Fc)
IC50 [1]: 0.03 nM
Maximal Blocking (%) [1]: 95%
Kd [2]: 0.515 nM
T½ [2]: 0.733 h
koff [2]: 0.000265 s⁻¹
kon [2]: 513000 M⁻¹ s⁻¹
Kd [3]: 0.0279 nM
T½ [3]: 4.43 h
koff [3]: 4.34e-05 s⁻¹
kon [3]: 1.56e+06 M⁻¹ s⁻¹

B12: H2M1937N (antibody, V domains shown)
VH: QVQLQQWDAGLLKPSETLSLTCAVYGGSFSSYYWSWIRQPPGKGLEWIGEINHRGSTNYNPSLKSRVTISVDTSKNQFSLKLRSVTAADTAVYYCARGGVAARPDWHFFDYWGQGTLVTVSS
VL: DIQMTQSPSSLSASVGDRVTITCRASQVIRNDLGWFQQRPGKAPKRLIYAASSLQSEVPSRFSGSGSGTEFTLTITSLQPEDFATYYCLQHNSYPLTFGQGTRLEIK
notes: as for B1
IC50 [1]: 0.044 nM
Maximal Blocking (%) [1]: 95%
Kd [2]: 0.682 nM
T½ [2]: 3.42 h
koff [2]: 5.63e-05 s⁻¹
kon [2]: 82600 M⁻¹ s⁻¹
Kd [3]: 0.116 nM
T½ [3]: 15.1 h
koff [3]: 1.27e-05 s⁻¹
kon [3]: 110000 M⁻¹ s⁻¹

Second part, the binder after the results:

IC50 [1]: 0.0229 nM
Maximal Blocking (%) [1]: 98%
Kd [2]: 0.409 nM
T½ [2]: 2.15 h
koff [2]: 8.96e-05 s⁻¹
kon [2]: 219000 M⁻¹ s⁻¹
Kd [3]: 0.0173 nM
T½ [3]: 25.4 h
koff [3]: 7.58e-06 s⁻¹
kon [3]: 439000 M⁻¹ s⁻¹
B4: H2M1827N (antibody, V domains shown)
VH: B2 VH with V23A, N52S, S57N
VL: B2 VL
notes: as for B1

IC50 [1]: 0.0261 nM
Maximal Blocking (%) [1]: 80%
Kd [2]: 0.438 nM
T½ [2]: 2.62 h
koff [2]: 7.35e-05 s⁻¹
kon [2]: 168000 M⁻¹ s⁻¹
Kd [3]: 0.0222 nM
T½ [3]: 24.2 h
koff [3]: 7.97e-06 s⁻¹
kon [3]: 359000 M⁻¹ s⁻¹
B6: H2M1934N (antibody, V domains shown)
VH: EVQLVQSGGGLVKPGGSLRLSCAASGFTFSNFNMNWVRQAPGKGLEWVSFISSLSTYTYYADSVKGRFTISRDNAKNSLYLQMNSLRAEDTAVYYCARDDGDHDWFDPWGQGTLVTVSS
VL: B5 VL with G9D, S32N, G51S, T52A, S54N, N94S
notes: as for B1

IC50 [1]: 0.0315 nM
Maximal Blocking (%) [1]: 92%
Kd [2]: 1.01 nM
T½ [2]: 0.6 h
koff [2]: 0.000322 s⁻¹
kon [2]: 319000 M⁻¹ s⁻¹
Kd [3]: 0.122 nM
T½ [3]: 3.27 h
koff [3]: 5.88e-05 s⁻¹
kon [3]: 480000 M⁻¹ s⁻¹
B8: H1M1819N (antibody, V domains shown)
VH: EVQLVESGGGVVRPGGSLRLSCAASGFTFDDYAMHWVRQAPGKGLEWVAGISWNSGSIDYADSVKGRFTISRDNAKNSLYLQMNSLRAGDTALYYCAKDILDLDYYGLDVWGQGTTVTVSS
VL: DIQMTQSPSSLSASVGDRVTITCRASQDISSYLAWYQQKPGKVPNLLIYDASSLQSGVPSRFSGSGSGTDFTLTLSSLQPEDFASYYCQNYNSAPYTFGQGTKLEIK
notes: as for B10

IC50 [1]: 0.527 nM
Maximal Blocking (%) [1]: 91%
Kd [2]: 6.59 nM
T½ [2]: 0.683 h
koff [2]: 0.000285 s⁻¹
kon [2]: 43200 M⁻¹ s⁻¹
Kd [3]: 1.09 nM
T½ [3]: 2.77 h
koff [3]: 6.97e-05 s⁻¹
kon [3]: 64100 M⁻¹ s⁻¹
B9: H2M1936N (antibody, V domains shown)
VH: EMQLVESGGGLVQPDRSLRLSCAASGFNFDNYAIHWVRQAPGKGLEWVSGISWNSGNIGYADSVKGRFTISRDNAKNSLFLLMNSLRPDDSALYYCTRGYNWNALSPMDVWGQGTTVTVSS
VL: B8 VL with I21V, D28G, S31N, N45K, D50A, S53T, L75I, F83V, Y96M, L104V
notes: as for B1

IC50 [1]: 0.53 nM
Maximal Blocking (%) [1]: 80%
Kd [2]: 0.477 nM
T½ [2]: 1.4 h
koff [2]: 0.000138 s⁻¹
kon [2]: 289000 M⁻¹ s⁻¹
Kd [3]: 0.0529 nM
T½ [3]: 7.92 h
koff [3]: 2.43e-05 s⁻¹
kon [3]: 460000 M⁻¹ s⁻¹
B11: H1M1940N (antibody, V domains shown)
VH: QVQVVESGGGVVQPGRSLRLSCAASGFTFSDYGMHWVRQAPGKGLEWVAIISYDGSNKYYADSVKGRFTVSRDNSKNTLYLQLDSLRPEDAAVFYCAREGAFNLDYYAMDVWGQGTTVTVSS
VL: AIQMTQSPSSLSASVGDRVTITCRASQDIRNDLGWYQQKPGKAPNLLIYAASSLQSGVPSRFSGSGSGTDFTLTISSLQPEDFATYYCLQDSNYPLTFGGGTKVEIK
notes: as for B10
